Earlier results on 2 substances are cited in article PMC8019513.

The Kd is the free concentration of one partner at which half of the binding sites on the other are occupied at equilibrium, for simple one-to-one binding.

Like-named read-outs stand apart in the source and are kept apart here.

For series [1], the target named is IL-8 (Homo sapiens) (UniProt P10145).
For series [2] the target is unchanged. The source holds these as a separate data set.

Chain of IL-8 (Homo sapiens) (P10145 28-99): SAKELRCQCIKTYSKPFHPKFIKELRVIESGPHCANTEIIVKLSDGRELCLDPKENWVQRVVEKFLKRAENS
Chain of CXCR1 (P25024 whole entry): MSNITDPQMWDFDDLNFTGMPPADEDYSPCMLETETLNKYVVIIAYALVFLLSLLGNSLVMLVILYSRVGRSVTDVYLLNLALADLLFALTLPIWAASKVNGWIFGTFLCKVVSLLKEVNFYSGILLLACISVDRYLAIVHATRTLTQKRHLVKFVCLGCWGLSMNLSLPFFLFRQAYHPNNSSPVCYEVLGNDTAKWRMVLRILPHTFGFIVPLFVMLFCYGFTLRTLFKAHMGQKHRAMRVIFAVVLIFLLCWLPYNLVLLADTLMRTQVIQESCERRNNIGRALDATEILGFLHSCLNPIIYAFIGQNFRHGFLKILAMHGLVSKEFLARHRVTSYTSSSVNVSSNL
Chain of CXCR2 (P25025 whole entry): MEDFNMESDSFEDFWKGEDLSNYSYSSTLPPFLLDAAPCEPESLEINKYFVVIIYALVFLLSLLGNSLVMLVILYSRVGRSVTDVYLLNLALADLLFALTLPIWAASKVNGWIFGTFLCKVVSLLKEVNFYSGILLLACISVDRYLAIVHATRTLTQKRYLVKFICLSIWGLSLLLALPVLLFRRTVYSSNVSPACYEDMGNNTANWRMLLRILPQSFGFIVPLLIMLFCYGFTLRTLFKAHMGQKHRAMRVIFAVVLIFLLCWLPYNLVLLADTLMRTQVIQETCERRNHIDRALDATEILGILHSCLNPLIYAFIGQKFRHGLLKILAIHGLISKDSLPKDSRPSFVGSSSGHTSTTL

Turning to CXCR1 (from UniProt P25024), the Kd in series [1] was 4 nM.

CXCR2 (from UniProt P25025): in series [2], the Kd is 4 nM.
